This is an account of results in PMC11032447 (2024).

B2: helix-b of the Habc domain of mouse syntaxin-4 (domain or fragment)
chain: TPLPEESMKQGLQNLREEIKQLGREVRAQLKAIEPQKE

Holding throughout (assay): ITC
Test [1] addresses C-terminal SNARE domain of mouse SNAP-25 (mouse, UniProt P60879 140-206).
Test [2] addresses B2.
Test [3] deals with T1, mouse secretagogin V233A (mouse, UniProt Q91WD9 1-276, V233A).
T1 sequence: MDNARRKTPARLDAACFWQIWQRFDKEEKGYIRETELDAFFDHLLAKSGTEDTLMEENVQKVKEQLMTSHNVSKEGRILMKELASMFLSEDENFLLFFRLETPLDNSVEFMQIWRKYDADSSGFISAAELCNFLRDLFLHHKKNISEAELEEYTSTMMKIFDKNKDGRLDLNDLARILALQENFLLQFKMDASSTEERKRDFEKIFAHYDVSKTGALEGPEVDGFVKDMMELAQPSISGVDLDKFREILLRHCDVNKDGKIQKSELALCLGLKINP

The target of test [4] is T2, mouse secretagogin R198A (mouse, UniProt Q91WD9 1-276, R198A).
T2 sequence: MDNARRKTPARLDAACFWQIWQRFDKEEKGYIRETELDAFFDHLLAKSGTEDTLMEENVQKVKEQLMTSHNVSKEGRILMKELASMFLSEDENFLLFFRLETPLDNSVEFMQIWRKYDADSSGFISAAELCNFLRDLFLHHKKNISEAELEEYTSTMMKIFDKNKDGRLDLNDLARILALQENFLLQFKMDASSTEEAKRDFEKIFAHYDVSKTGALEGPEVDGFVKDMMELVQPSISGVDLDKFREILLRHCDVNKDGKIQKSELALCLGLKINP

Test [5] concerns the target T3, mouse secretagogin M229A (mouse, UniProt Q91WD9 1-276, M229A).
T3 sequence: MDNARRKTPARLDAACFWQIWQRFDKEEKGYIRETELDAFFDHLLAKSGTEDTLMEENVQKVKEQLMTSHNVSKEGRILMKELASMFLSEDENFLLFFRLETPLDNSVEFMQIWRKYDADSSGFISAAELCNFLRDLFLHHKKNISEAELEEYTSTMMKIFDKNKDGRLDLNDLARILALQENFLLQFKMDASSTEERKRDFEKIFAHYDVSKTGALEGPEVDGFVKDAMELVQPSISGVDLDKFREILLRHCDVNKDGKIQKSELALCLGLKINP

Test [6] addresses T4, mouse secretagogin M229E (mouse, UniProt Q91WD9 1-276, M229E).
T4 sequence: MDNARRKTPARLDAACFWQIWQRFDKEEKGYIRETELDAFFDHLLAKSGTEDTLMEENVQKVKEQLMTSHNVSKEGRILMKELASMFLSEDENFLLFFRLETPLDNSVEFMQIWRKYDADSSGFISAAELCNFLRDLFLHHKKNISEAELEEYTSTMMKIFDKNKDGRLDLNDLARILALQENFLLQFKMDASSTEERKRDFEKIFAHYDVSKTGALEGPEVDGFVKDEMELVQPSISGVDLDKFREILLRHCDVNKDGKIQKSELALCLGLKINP

Chain of C-terminal SNARE domain of mouse SNAP-25 (P60879 140-206): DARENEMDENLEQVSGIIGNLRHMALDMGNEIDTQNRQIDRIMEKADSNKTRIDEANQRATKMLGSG

B1: mouse secretagogin (natural protein)
chain: MDNARRKTPARLDAACFWQIWQRFDKEEKGYIRETELDAFFDHLLAKSGTEDTLMEENVQKVKEQLMTSHNVSKEGRILMKELASMFLSEDENFLLFFRLETPLDNSVEFMQIWRKYDADSSGFISAAELCNFLRDLFLHHKKNISEAELEEYTSTMMKIFDKNKDGRLDLNDLARILALQENFLLQFKMDASSTEERKRDFEKIFAHYDVSKTGALEGPEVDGFVKDMMELVQPSISGVDLDKFREILLRHCDVNKDGKIQKSELALCLGLKINP
As to B1, the dissociation constant (Kd) in test [1] turned out to be 21.9 nM; in test [2], 407 nM.

Regarding B2, the Kd in test [3] was found to be 125 nM; in test [4] it was 808 nM; in test [5] it was 1620 nM; in test [6] it was 5210 nM.
